Consider 7 substances from PMC6978714, “Protective Allele for Multiple Sclerosis HLA-DRB1*01:01 Provides Kinetic Discrimination of Myelin and Exogenous Antigenic Peptides” (Frontiers in Immunology, 2020).

No end group written: not given here.

In assay [1] the target is T1, HLA-DRB1*15:01 (Homo sapiens, UniProt P01903+P01911). The experiment in a line: Peptide binding ELISA (L243 capture, streptavidin-peroxidase). As to conditions: thioredoxin-fused biotinylated MBP fragments 750 nM, HLA-DR 150 nM, overnight, 37°C. As to the method:
DR/peptide complexes were then captured on the ELISA plate with immobilized L243 mAb (5 μg/ml in PBS) and blocked with 1% milk in PBS. HLA-DR-bound biotinylated peptide was quantitated with streptavidin-peroxidase (50 μl in PBST), using 3,3′,5,5′-tetramethylbenzidine (50 μl) as a substrate and stopping with 10% phosphoric acid (50 μl). ELISA was performed using standard protocol (https://www.abcam.com/protocols/sandwich-elisa-protocol).
Background: An ELISA detects its analyte on a solid surface through an enzyme-linked reagent.

Assay [2] deals with T2, HLA-DRB1*01:01 (Homo sapiens, UniProt P01903+P01911, A100R/D57E/F55L/F60I/F76Y/I96L/L162R/M171V/P40L/Q125E/R42F/V115G/Y59C). The description is as above. As to conditions: thioredoxin-fused biotinylated MBP fragments 750 nM, HLA-DR 150 nM, overnight, 37°C.
Assay [3] deals with T1, HLA-DRB1*15:01. The experiment in a line: Real-time ELISA kinetics of peptide loading (CLIP exchange) with or without HLA-DM. It counts as binding. Conditions: thioredoxin-fused peptides 150 nM, HLA-DR 150 nM, HLA-DM 150 nM. As for the experimental part: A real-time ELISA assay was used to assess kinetics of peptide exchange on HLA-DR, catalyzed by HLA-DM. The linker connecting the CLIP peptide to the N-terminus of the HLA-DR β chain was cut with thrombin (1 h, 20 U/mg, at room temperature). DR-CLIP complexes (150 nM) were incubated with or without HLA-DM (150 nM, which was estimated as minimal concentration for maximal rate, see Figure S1) in the presence of biotinylated either synthetic or thioredoxin-fused HA, pp65, MBP, and chimeric peptides (150 nM, which was experimentally estimated as minimal concentration required for reliable detection), for 7, 5, 3, 1, and 0 h. Each time point was mixed separately starting from the end of incubation time (7 h) every 2 h, afterwards all time points were loaded into the plate.

In assay [4] the target is T1, HLA-DRB1*15:01. Put plainly: Kinetic competition assay with Trx-[pp65]bio in presence of HLA-DM. The format is binding. As to conditions: HLA-DRB1*15:01 150 nM, HLA-DM 150 nM, Trx-[pp65]bio 150 nM, competitor 0-1 μM. As for the experimental part:
(§1) In a competition assay, kinetic experiments were carried out as described above. Kinetics were measured in the presence of increasing concentrations (0, 30, 100, 300, and 1,000 nM) of thioredoxin-fused HA, pp65, MBP, or chimeric peptides at timepoints 8, 6, 4, 2, and 0 h. Thioredoxin without any peptide was used as a control. ELISA was performed as done previously. All experiments were carried out in triplicates.

Assay [5] concerns the target T1, HLA-DRB1*15:01. The experiment in a line: 18 h competition assay with Trx-[pp65]bio. It counts as binding. Conditions: HLA-DRB1*15:01 150 nM, Trx-[pp65]bio 150 nM, competitor 7.8 nM-1 μM. As to the method: In a competition assay, biotinylated thioredoxin-fused HA and pp65 peptides (150 nM) were incubated with HLA-DR in the presence of HA, pp65, MBP or chimeric peptides (1,000, 500, 250, 125, 62.5, 31.2, 15.6, and 7.8 nM) for 18 h. Whole procedure was the same as described above.

In assay [6] the target is T2, HLA-DRB1*01:01. Put plainly: Real-time ELISA kinetics of peptide loading (CLIP exchange) with or without HLA-DM. It counts as binding. Conditions: thioredoxin-fused chimeric peptides with C-terminal part of MBP151-164 or MBP88-100, 150 nM, HLA-DR 150 nM, with or without HLA-DM 150 nM.
Assay [7] concerns the target T2, HLA-DRB1*01:01. The experiment in a line: Kinetic competition assay with Trx-[HA]bio in presence of HLA-DM. It counts as binding. As to conditions: HLA-DRB1*01:01 150 nM, HLA-DM 150 nM, Trx-[HA]bio 150 nM, competitor 0-1 μM, 0-8 h. As for the experimental part: as §1
The next assay deals with HLA-DR1. As to conditions: direct binding to purified molecules; cited from earlier work. The text has this:
(§2) MS therapeutic glatiramer acetate (GA) or Copaxone is a 40–100 amino acids polypeptide of a random sequence composed from alanine, lysine, glutamate, and tyrosine at a molar ratio of 4.5:3.6:1.5:1, respectively, that with high affinity binds directly to the purified HLA-DR1, -DR2, and -DR4 molecules ([45]). Combinatorial chemistry, which lays in the basis of GA, may result in assembling of multiple HLA class II epitopes, that at least in part may be not simply thermodynamically but rather kinetically preferable. Concluding our data provide novel vector of optimization of altered peptide ligand ...

The test system of a further assay is HLA-DR2. As to conditions: direct binding to purified molecules; cited from earlier work.
Description: as §2

For the next assay, the system named is HLA-DR4. As to conditions: direct binding to purified molecules; cited from earlier work.
Description: as §2

For the substance “MBP25−54: thioredoxin-fused MBP fragment of the MBP epitope library (ARHGFLPRHRDTGILDSIGRFFGGDRGAPK; not fully specified (N-terminus); also: fused to thioredoxin via (SGGGG)3S linker at N-terminus, His-tag, position not given here, biotinylated with Sulfo-NHS-LC-biotin, site not given here)”, the “Binding of MBP epitope library to HLA-DRB1*15:01” value in the assay with HLA-DRB1*15:01 [1] is “significantly diminished efficiency”.

In the case of “MBP65−92: thioredoxin-fused MBP fragment of the MBP epitope library ({thioredoxin-(SGGGG)3S}-ARTAHYGSLPQKSHGRTQDENPVVHFFK; also: biotin (EZ-Link Sulfo-NHS-LC-biotin), places not given here, His-tag, end not given here)”, the “Binding of MBP epitope library to HLA-DRB1*01:01” value in the assay with HLA-DRB1*01:01 [2] is “less efficiently bound”.

In the case of “MBP130−156: thioredoxin-fused MBP fragment of the MBP epitope library (GRASDYKSAHKGFKGVDAQGTLSKIFK; not fully specified (N-terminus); also: fused to thioredoxin via (SGGGG)3S linker at N-terminus, His-tag, position not given here, biotinylated with Sulfo-NHS-LC-biotin, site not given here)”, the “Binding of MBP epitope library to HLA-DRB1*01:01” value in the assay with HLA-DRB1*01:01 [2] is “less efficiently bound”. For the same substance, the “Binding of MBP epitope library to HLA-DRB1*15:01” value with HLA-DRB1*15:01 [1] is reported as “significantly diminished efficiency”.

Turning to “Trx-[MBP85−97]: thioredoxin-fused MBP85−97 (NPVVHFFKNIVTP; not fully specified (N-terminus); also: fused to thioredoxin via (SGGGG)3S linker at N-terminus, His-tag, position not given here, biotinylated with Sulfo-NHS-LC-biotin, site not given here)”, the “Rate of loading on HLA-DRB1*15:01 with or without HLA-DM” value with HLA-DRB1*15:01 [3] is reported as “similarly high rate”. For the same substance, the “Concentration from which binding of Trx-[pp65]bio was decreased” value with HLA-DRB1*15:01 [4] stood at 100 nM. In addition, the “Thermodynamic inhibition capacity in comparison with Trx-[pp65] and Trx-[pp65-MBP91-97]” value in the assay with HLA-DRB1*15:01 [5] was “up to half of order of magnitude greater”.

For the substance “Trx-[MBP88−100]: thioredoxin-fused MBP88−100 ({thioredoxin-(SGGGG)3S}-VHFFKNIVTPRTP; also: biotin (EZ-Link Sulfo-NHS-LC-biotin), places not given here, His-tag, end not given here)”, the “Capable of efficiently binding HLA-DRB1*01:01 (kinetic assay)” value in the assay with HLA-DRB1*01:01 [6] is listed as “none”.

Take “Trx-[MBP151−164]: thioredoxin-fused MBP151−164 ({thioredoxin-(SGGGG)3S}-LSKIFKLGGRDSRS; also: biotin (EZ-Link Sulfo-NHS-LC-biotin), places not given here, His-tag, end not given here)”: in the assay with HLA-DRB1*01:01 [6], the “Capable of efficiently binding HLA-DRB1*01:01 (kinetic assay)” value is “none”. Besides, in the assay with HLA-DRB1*01:01 [7], the “Concentration up to which the peptide failed to compete with Trx-[HA]bio” value was more than 1 µM.

glatiramer acetate: the “Binding to purified HLA-DR1” value with HLA-DR1 was “high affinity”. The “Binding to purified HLA-DR2” value in the assay with HLA-DR2 is recorded as “high affinity”. Besides, the “Binding to purified HLA-DR4” value in the assay on HLA-DR4 is on record as “high affinity”.
